In patent US8008074B2, “Compositions and methods for improving bone mass through modulation of receptors of PTH and fragments thereof” (The UAB Research Foundation, priority 2006, dated 2011):

What was measured:
Format in all cases: cell-based
PTH1R/LRP6 complex = PTH1R/LRP6 complex (Homo sapiens, UniProt Q03431)
LRP6/Axin binding = assay: Axin-LRP6 binding immunoprecipitation assay; settings: without added GSK3β; data not shown
TGFβRII = biological target: T1, TGFβRII (Homo sapiens, UniProt P37173+Q03431); assay: TGFβRII internalization in HEK293-PTH1R cells; settings: stimulated with PTH for 30 minutes; 90% before stimulation
T1 construct: expressed in transfected cells; host or cells: HEK293-PTH1R (HEK293 stably expressing HA-PTH1R)
Description: TGFβRII tagged with Flag epitope was expressed in HEK293 cells that were expressing PTH1R or not, and the transfected cells were treated with PTH or control.
In particular, TGFβ1 treatment increases the number of cell membrane PTH1R. Therefore, the potential functional relationship of PTH with TGFβRII was examined. TGFβRII tagged with Flag epitope was transiently expressed in embryonic kidney 293 (HEK293) cells or HEK293 cells stably expressing PTH1R with HA (HEK293-PTH1R). In the absence of PTH, TGFβRII was present predominantly at the cell surface, with a few puncta in the cytosol (data not shown). […] To visualize the effect of PTH to the TβRII, a red fluorescent PTH (1-34) was synthesized in which the TMR fluorophore was attached to the side chain of the lysine residue at position 13 in PTH (1-34) (PTH^TMR).
To quantitate these observations, the cells were fixed at various time points and classified as three types: (1) TGFβRII is dominantly present at the cell surface, (2) TGFβRII locates to both the cell surface and vesicles in the cytosol, and (3) TGFβRII mainly localizes to the cytosol as vesicles. Before stimulation with PTH, TGFβRII was present at the cell surface in 90% of the cells. […] From 10 to 30 minutes after stimulation with PTH (1-34), cell-surface TβRII levels were reduced, indicative of receptor clearance from the cell surface membrane (FIG. 10B). […]

[1] = biological target: T2, TGFβRII/PTH1R interaction (Homo sapiens, UniProt P37173+Q03431); assay: Co-immunoprecipitation of TGFβRII and PTH1R in 293 cells; settings: cotransfected HEK293 cells; 10% FBS medium; PTH stimulation
T2 construct: The 293T cells endogenously expressed TGFβRII; endogenous in cells; host or cells: 293T
Description: Human embryonic kidney 293T cells in DMEM with 10% serum were treated with vehicle (water), TGF-β (2 ng/ml), or PTH (1-34) (50 nM) for 24 hours. The 293T cells endogenously expressed TGFβRII. The cells were cultured in DMEM with 10% serum and were split at 30%-40% confluent.
Immunoprecipitation assays were performed as described previously (Shi et al., 2004, J. Cell. Biol. 164:291-300). TGFβRII was immunoprecipitated from the cell extracts using anti-TGFβRII antibody (Santa Cruz Biotechnology, Inc.; 1:250 dilution), and the immunocomplex was detected by Western blotting with an antibody specific for PTH1R (Santa Cruz Biotechnology, Inc.; 1:200 dilution) to detect PTH1R protein. […] Furthermore, the interaction of PTH1R with TGFβRII can be in the form of monomers or dimers.
Next, the interaction was examined using a biochemical approach. PTH1R-HA was contransfected in HEK293 cells with Flag-TβRII. The cell lysate was subjected to HA immunoprecipitation, and associated TβRII was immunoblotted with anti-Flag antibody. TβRII specifically coprecipitated with PTH1R (FIG. 11) in 10% FBS medium, and the interaction was enhanced by PTH stimulation, whereas the kinase-dead mutant of TβRII lost the interaction with PTH1R (data not shown) even with treatment of PTH. The interaction of endogenous PTH1R and TβRII was also examined. […]

T1 sequence (P37173 23-567): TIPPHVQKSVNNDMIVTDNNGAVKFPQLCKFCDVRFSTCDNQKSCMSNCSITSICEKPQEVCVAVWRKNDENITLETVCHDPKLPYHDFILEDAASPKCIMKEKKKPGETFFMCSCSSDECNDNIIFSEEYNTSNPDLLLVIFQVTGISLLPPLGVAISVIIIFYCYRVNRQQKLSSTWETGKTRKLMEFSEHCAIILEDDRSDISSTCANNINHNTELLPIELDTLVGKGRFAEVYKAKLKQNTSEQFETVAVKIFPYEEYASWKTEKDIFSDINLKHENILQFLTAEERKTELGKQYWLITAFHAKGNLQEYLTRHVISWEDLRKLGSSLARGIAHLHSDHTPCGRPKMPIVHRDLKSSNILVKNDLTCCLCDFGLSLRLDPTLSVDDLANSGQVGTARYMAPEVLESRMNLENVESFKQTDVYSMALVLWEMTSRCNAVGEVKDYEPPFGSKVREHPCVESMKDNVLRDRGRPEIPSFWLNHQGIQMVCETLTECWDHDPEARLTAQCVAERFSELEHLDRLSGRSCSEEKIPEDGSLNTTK
T1 sequence (Q03431 27-593): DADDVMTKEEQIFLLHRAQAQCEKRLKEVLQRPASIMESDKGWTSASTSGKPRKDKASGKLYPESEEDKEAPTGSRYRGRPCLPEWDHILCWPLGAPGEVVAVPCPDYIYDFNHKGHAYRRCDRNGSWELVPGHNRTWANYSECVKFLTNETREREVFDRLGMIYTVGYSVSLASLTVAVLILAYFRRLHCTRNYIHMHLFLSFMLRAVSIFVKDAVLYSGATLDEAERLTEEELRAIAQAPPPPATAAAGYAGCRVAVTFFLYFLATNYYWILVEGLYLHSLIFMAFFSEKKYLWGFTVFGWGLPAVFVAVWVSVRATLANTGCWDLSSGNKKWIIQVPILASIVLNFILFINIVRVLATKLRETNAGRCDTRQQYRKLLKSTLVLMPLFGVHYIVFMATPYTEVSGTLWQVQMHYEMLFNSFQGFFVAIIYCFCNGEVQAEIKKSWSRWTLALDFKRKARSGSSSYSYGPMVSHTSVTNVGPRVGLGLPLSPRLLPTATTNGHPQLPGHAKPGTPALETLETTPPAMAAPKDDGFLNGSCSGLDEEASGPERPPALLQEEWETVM
T2 sequence (Q03431 27-593): as above
T2 sequence (P37173 23-567): as the sequence (P37173 23-567) above

PTH: Parathyroid hormone ligand, form not stated at the place; figure legends give PTH (1-84) or PTH (1-34)
enhancement of interaction of PTH1R with LRP6N or LRP6 (PTH1R/LRP6 complex): did not enhance the interaction of PTH1R with LRP6N or LRP6 | LRP6-associated PTH ligand (anti-VSVG immunoprecipitates, anti-PTH blot) (PTH1R/LRP6 complex; HEK 293 cells, 5×10^−7 M PTH (1-84) for 1 hour): immunoprecipitated only when both LRP6 and PTH1R were cotransfected | Axin/LRP6 binding, PTH alone (LRP6/Axin binding): undetectable | cells exhibiting cell-surface localization of TGFβRII (TGFβRII): less than 10% | interaction of PTH1R-HA with Flag-TβRII [1]: enhanced
